The source of these data is US20230000998A1 (OSSIANIX, published 2023).

For one experiment, the target named is T1, human serum albumin (human, UniProt P02768 25-609).
T1 construct: also called HSA; HAS
The experiment in a line: kinetic ELISA on coated HSA (negative control); ND: not detected. The procedure: (§1) The TrkB fusion constructs were assessed for binding to recombinant human, mouse, rat and cynomolgus TfR1. […] When these conjugates were compared to a control VNAR-Fc (open circles), no loss of affinity for TrkB(HC2N) (squares) was observed and only minimal loss for TrkB(HV2N) (triangles).
(§2) TfR-1-binding ELISA. Nunc MaxiSorp plates (Thermo Fisher) were coated with 100 μl of 1 μg/ml of purified, recombinant mouse, human, rat or cynomolgus TfR-1, or with human serum albumin (HAS; Sigma) and incubated at 4° C. overnight. Plates were incubated with blocking buffer (2.5% non-fat dry milk in PBS with 0.1% Tween20; “PBST”) for 1 hat room temperature. Antibody or conjugate solutions were incubated in PBST for 30 min. The blocked solutions (100 μl) were transferred to the blocked plates and incubated for 1 h before washing with PBST. After washing, the plates were incubated for 30 min with a goat anti-human Fc-peroxidase antibody diluted 1:5000 (Sigma) in PBST. The plates were washed and developed with SureBlue™ TMB substrate (VWR). The development of the reaction was measured at 370 nm in real time providing data for Vmax analysis. EC50 values were calculated using 4-parametric non-linear regression (Prism).
(In general: ELISA stands for enzyme-linked immunosorbent assay.)

The target in experiment [1] is T2, human TfR-1 (transferrin receptor 1), purified recombinant (human, UniProt P02786 89-760, limits assumed).
T2 construct: Coated on ELISA plates at 1 ug/ml; also called hTfR1
In words: kinetic ELISA on coated recombinant TfR-1, anti-human Fc-HRP detection, Vmax at 370 nm. The method, then:
as §1, §2

Experiment [2] has as its target T3, mouse TfR-1 (transferrin receptor 1), purified recombinant (mouse, UniProt Q62351 89-763, limits assumed).
T3 construct: also called mTfR1
The experiment is described as above. The procedure:
as §1, §2

In experiment [3] the target is T4, rat TfR-1 (transferrin receptor 1), purified recombinant (rat, UniProt Q99376 89-761, limits assumed).
T4 construct: also called rTfR1
Described as above. The method, then: as §1, §2

Experiment [4] concerns the target T5, cynomolgus TfR-1 (transferrin receptor 1), purified recombinant (cynomolgus, UniProt H9EXL1 89-760 (rhesus entry)).
T5 construct: also called cTfR1
The description is as above. The procedure: as §1, §2

The target of experiment [5] is human TrkB receptor (overexpressed on TrkB-NFAT-bla CHO-K1 reporter cells) (human, UniProt Q16620 32-822). The experiment in a line: cell-based or functional assay.
Experiment [6] deals with T2, human TfR-1 (transferrin receptor 1), …. In words: kinetic ELISA on coated recombinant TfR-1 (Vmax at 370 nm); ND: not detected. The method, then: as §1, §2
Experiment [7] has as its target T3, mouse TfR-1 (transferrin receptor 1), …. Described as above. The method, then:
as §1, §2

The target in experiment [8] is T4, rat TfR-1 (transferrin receptor 1), …. The description is as above. The procedure: as §1, §2
In experiment [9] the target is T5, cynomolgus TfR-1 (transferrin receptor …). The description is as above. The procedure:
as §1, §2

T4 sequence (Q99376 89-761 limits assumed): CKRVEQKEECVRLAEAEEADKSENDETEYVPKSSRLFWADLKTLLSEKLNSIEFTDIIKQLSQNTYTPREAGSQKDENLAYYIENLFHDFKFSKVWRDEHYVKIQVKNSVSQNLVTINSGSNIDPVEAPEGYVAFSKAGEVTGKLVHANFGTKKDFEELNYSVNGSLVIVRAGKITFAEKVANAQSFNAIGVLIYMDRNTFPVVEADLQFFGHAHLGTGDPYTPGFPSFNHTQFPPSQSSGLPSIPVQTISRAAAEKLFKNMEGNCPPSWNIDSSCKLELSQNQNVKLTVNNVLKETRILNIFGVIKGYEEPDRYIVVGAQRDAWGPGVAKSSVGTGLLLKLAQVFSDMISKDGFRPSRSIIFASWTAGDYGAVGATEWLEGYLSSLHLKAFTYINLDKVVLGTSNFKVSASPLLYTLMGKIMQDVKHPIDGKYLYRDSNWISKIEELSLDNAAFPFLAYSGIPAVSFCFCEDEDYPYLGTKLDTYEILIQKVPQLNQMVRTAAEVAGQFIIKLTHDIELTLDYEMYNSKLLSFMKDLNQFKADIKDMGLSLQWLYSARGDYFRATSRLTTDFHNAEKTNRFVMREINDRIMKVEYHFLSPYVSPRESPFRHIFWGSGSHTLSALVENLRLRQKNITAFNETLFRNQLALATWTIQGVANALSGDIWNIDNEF
T2 sequence (P02786 89-760 limits assumed): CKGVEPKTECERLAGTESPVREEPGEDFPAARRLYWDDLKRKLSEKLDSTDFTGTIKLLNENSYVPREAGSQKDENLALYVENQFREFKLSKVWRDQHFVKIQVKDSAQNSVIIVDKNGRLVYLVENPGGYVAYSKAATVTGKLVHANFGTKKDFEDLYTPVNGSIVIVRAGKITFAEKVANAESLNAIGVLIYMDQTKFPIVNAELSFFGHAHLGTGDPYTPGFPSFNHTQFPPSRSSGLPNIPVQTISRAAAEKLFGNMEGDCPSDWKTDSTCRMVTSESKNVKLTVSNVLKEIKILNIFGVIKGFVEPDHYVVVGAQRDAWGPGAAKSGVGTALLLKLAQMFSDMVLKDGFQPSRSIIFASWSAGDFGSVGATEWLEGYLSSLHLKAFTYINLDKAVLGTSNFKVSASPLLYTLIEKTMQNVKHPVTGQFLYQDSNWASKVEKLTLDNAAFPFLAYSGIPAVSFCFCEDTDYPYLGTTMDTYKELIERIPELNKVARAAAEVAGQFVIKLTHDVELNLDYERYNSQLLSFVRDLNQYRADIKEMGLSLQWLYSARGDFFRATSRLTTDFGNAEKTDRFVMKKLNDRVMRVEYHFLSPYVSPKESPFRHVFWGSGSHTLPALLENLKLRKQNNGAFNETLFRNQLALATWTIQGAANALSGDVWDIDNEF
human TrkB receptor (overexpressed on TrkB-NFAT-bla CHO-K1 reporter cells), sequence (Q16620 32-822): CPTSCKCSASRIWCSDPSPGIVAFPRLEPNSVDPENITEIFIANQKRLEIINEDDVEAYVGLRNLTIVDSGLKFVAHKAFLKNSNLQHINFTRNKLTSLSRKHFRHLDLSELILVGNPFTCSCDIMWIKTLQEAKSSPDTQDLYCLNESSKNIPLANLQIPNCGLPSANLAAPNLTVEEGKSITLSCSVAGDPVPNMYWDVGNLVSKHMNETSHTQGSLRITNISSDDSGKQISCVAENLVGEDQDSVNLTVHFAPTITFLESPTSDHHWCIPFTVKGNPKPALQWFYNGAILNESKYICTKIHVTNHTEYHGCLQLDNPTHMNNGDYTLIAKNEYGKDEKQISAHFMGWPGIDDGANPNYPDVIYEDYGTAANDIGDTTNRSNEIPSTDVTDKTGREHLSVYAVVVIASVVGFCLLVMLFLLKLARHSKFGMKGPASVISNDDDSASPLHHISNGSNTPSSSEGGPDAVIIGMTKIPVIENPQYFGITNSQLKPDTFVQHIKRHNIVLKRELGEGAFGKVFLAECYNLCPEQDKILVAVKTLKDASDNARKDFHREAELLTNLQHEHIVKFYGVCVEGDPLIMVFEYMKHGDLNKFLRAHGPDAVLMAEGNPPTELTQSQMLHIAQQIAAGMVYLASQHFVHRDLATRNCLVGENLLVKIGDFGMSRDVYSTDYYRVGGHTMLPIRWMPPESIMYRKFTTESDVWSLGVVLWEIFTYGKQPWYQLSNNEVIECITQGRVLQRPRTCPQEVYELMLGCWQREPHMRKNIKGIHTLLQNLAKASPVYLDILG
T1 sequence (P02768 25-609 limits assumed): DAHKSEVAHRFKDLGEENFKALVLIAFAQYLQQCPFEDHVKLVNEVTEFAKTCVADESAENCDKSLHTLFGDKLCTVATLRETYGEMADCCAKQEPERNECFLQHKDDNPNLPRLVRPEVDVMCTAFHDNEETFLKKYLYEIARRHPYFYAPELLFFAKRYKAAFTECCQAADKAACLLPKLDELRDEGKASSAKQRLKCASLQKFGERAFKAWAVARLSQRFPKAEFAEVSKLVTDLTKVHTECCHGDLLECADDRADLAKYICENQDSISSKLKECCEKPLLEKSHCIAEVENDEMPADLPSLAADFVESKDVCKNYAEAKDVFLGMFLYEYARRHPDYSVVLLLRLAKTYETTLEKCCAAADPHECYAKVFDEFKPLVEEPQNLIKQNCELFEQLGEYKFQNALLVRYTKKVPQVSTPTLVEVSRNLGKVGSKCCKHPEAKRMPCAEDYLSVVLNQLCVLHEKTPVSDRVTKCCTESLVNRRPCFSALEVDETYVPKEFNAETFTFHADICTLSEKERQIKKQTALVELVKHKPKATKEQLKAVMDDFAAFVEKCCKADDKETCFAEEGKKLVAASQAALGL
T3 sequence (Q62351 89-763 limits assumed): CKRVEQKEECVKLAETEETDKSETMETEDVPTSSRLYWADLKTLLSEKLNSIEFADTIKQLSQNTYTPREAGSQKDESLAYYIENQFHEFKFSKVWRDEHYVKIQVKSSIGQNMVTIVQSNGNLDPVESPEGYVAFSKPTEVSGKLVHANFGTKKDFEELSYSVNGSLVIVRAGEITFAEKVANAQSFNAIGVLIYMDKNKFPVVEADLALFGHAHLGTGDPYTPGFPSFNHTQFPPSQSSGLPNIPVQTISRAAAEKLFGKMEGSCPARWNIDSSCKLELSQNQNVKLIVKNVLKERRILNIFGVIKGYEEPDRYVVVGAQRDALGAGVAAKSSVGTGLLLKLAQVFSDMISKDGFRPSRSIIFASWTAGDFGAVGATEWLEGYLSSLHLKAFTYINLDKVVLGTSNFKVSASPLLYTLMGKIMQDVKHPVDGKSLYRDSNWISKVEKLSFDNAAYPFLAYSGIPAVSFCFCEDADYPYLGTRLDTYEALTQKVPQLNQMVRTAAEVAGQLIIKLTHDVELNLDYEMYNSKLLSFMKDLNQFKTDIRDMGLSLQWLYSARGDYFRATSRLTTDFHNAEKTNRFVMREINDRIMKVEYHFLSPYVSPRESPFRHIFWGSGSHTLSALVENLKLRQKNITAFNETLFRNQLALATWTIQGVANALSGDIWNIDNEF
T5 sequence (chain, as listed by the source): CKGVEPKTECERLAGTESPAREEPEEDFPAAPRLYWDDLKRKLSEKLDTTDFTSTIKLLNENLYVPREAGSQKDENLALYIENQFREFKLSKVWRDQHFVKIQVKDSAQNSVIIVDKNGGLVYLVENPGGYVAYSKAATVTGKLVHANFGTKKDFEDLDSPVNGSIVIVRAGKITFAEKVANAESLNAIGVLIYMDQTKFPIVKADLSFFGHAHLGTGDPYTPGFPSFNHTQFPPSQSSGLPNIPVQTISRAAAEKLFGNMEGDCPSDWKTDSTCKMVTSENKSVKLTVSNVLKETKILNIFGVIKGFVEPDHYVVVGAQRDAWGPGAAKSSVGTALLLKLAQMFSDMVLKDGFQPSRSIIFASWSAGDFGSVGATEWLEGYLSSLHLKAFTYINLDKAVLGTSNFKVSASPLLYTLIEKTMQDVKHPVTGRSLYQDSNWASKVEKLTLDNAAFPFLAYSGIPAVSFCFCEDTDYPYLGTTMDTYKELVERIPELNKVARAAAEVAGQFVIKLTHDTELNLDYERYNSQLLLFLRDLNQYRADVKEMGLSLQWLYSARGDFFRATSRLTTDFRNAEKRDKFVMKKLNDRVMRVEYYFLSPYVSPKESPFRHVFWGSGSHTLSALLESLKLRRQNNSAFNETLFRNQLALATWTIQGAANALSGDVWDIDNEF

B1: VNAR-Fc control conjugate (TXB4 fused to the N-terminal end of the Fc domain) (Fc fusion)
chain: ARVDQTPQTITKETGESLTINCVLRDSNCALSSTYWYRKKSGSTNEENISKGGRYVETVNSGSKSFSLRINDLTVEDSGTYRCNVVQYPQYPNYFWCDVYGDGTAVTVNA
notes: also called control VNAR-Fc fusion; not shown: Fc domain
Turning to B1, in the experiment with human serum albumin, the binding result is on record as “no binding”. Besides, the EC50 – broadly, the concentration that produces a half-maximal response – in experiment [1] was 0.78 nM; in [2] it was 0.54 nM; in experiment [3], 1.37 nM; in experiment [4] it was 1 nM.

B2: unconjugated TrkB-AAb (mouse-human chimeric 29D7 TrkB agonist antibody, human IgG1 LALA / human kappa) (antibody, V domains shown)
VH: EVQLQQSGPELVKPGASMKISCKTSGYSFTAYFMNWVKQSHGKSLEWIGRINPNNGDTFYTQKFKGKATLTVDKSSNTAHMELLSLTSEDSAIYYCGRRDYFGAMDYWGQGTSVTVSS
VL: AIVLIQSPATLSVTPGDSVSLSCRASQTISNNLHWYQQKSHESPRLLIKSASLAISGIPSRFSGSGSGTDFTLSISSVETEDFGMYFCQQSNSWPNTFGGGTKLEIKR
notes: VH and VL of mouse 29D7 fused to human IgG1 and human kappa constant regions; Copies of 2 are inferred from the IgG1 format; also called unconjugated TrkB antibody; TrkB 29D7
As for B2, the “maximal reporter response as percentage of the BDNF response (TrkB-NFAT-bla CHO-K1 cells)” value (from here on “maximal reporter response as percentage”) in [5] was around 50%. The binding result (with human serum albumin; in [6]; in experiment [7]; in experiment [8]; in experiment [9]) was “no binding” each time.

B3: TrkB(HC2N) conjugate (TXB4 VNAR fused to the N-terminus of the TrkB antibody heavy chain via a 3xG4S linker) (bispecific antibody, human IgG1, kappa, L234A L235A)
light: AIVLIQSPATLSVTPGDSVSLSCRASQTISNNLHWYQQKSHESPRLLIKSASLAISGIPSRFSGSGSGTDFTLSISSVETEDFGMYFCQQSNSWPNTFGGGTKLEIKRTVAAPSVFIFPPSDEQLKSGTASVVCLLNNFYPREAKVQWKVDNALQSGNSQESVTEQDSKDSTYSLSSTLTLSKADYEKHKVYACEVTHQGLSSPVTKSFNRGEC
heavy: not shown
notes: Copies of 2 are inferred from the IgG1 format; also called TXB4-TrkB-AAb conjugate
On to B3, for which the “agonist activity relative to TrkB(HV2N) (TrkB-NFAT-bla CHO-K1 cells)” value in experiment [5] was ~7 fold less than TrkB(HV2N). For the same molecule, in experiment [5], the “maximal reporter response as percentage” value is around 50%. The binding result with human serum albumin is reported as “no binding”. The EC50 in experiment [1] stood at 0.74 nM; in experiment [2] it was 0.63 nM; in [3], 4.03 nM; in [4], 0.79 nM.

B4: TrkB(HV2N) conjugate (TXB4 VNAR inserted between the CH1 and Fc domains of the TrkB antibody heavy chain) (bispecific antibody, IgG1)
light: B3 light
heavy: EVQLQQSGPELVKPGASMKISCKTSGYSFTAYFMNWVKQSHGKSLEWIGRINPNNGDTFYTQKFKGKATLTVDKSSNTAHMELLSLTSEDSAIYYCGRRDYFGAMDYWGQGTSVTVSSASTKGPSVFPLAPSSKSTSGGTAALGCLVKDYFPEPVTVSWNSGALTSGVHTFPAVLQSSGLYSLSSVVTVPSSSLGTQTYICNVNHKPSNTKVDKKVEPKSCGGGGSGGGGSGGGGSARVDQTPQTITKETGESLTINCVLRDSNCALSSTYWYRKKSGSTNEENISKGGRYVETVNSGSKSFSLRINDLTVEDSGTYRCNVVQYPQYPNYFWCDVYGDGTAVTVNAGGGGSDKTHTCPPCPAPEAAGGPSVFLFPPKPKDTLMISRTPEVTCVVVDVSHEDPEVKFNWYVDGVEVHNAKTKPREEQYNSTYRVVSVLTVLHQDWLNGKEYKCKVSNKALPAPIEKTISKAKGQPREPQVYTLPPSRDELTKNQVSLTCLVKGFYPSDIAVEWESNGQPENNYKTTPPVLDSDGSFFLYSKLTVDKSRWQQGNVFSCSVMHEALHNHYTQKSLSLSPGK
notes: Copies of 2 are inferred from the IgG1 format; also called TrkB1-TXB4; TXB4-TrkB-AAb conjugate
With B4, the “maximal reporter response as percentage” value in experiment [5] was around 50%. For the same molecule, the binding result in the experiment with human serum albumin is given as “no binding”. Besides, the 50% effective concentration (EC50) in [1] is 5.3 nM; in [2] it was 5.07 nM; in experiment [3], 61 nM; in experiment [4], 2.04 nM.
